Experiments:
[1] = target: PneKC without His tag, co-expressed with N-terminally His-tagged PneA (Streptococcus pneumoniae); assay: negative-stain EM
[2] = target: T1, PneKC, wild type, N-terminally His-tagged, expressed without PneA (apo PneKC) (Streptococcus pneumoniae); assay: negative-stain EM
[3] = target: T1, PneKC, wild type, N-terminally …; assay: SEC
[4] = target: PneKC, wild type, N-terminal His7 tag, co-expressed with PneA from pQLinkN-PneKC-PneA (Streptococcus pneumoniae); assay: SEC

PneKC without His tag, co-expressed with N-terminally His-tagged PneA (enzyme)
stoichiometry N [1]: 2

B1: PneKC, wild type, N-terminally His-tagged, expressed without PneA (apo PneKC) (enzyme)
chain: MDYNFNLEHPFFFTNNDYSTDTSIKYQASLPFNWHEVMNNDEWVYQYPIGKFVERQGWKIHISSEYNSSHELLQDVAKICHEMRIPFKHLSTEDKFIMRNGKLVSRGFSGKFITCYPNQNELESVLQRLESALKQYNGPYILSDKRWDEAPIYLRYGVFRPSRDDEKKVAIDELIVGDEVVKDERLPVFKIPKGIVPPDFLNKWLDKKDKKQGDFPFIIDNAIRFSNSGGIYNARLKEDGKKIILKEARPYTGLGFDGTYSSEKLASECKALKILNEWSEAPKIYWHGKIWEHTFLGIEHMKGVPLNRWVTNNFPLYEVVDKTKDYLLRVSKIVEKLIDLTNKFHSENVYHQDLHLGNILVKDEDEISIIDWEQAVFSNDEKVVHKVAAPGFRAWRETLPSEIDWYGIRQIAHYLYMPLVTTSDLTYNYVSQTRIEGKKLFESLGYTREHIDYVESLLSYLDSKCPQIENISRKKVLKPMHEIRTIESEQDIQDFIIKLLRGFTLTYGQWRKEFQSRFFPVHYYGLNFNQGIAFSDLAILWSYQQLAKKVKNFKFDDYYEIRTQVINEAVNNFKKSSLSGLFDGKIGTIWLIYEFGEIDRAVELFTTHFIEIFENSQNKNLYSGQAGILLVGLYFLSKGEIDNKLGEEILIRLREYTLNYIENPETFCKVGASDVQSNDPYENFGGLLYGHAGVAWLFGEAYKLTGESIYKNGLELAVDKELVAYKVDSNNSLQYSQGHRLLPYLATGSAGLLLLINRNKEILSSKYLKYLTSLERATDVVFCVLPGLFNGFCGLEVANNIYSDIDDNFSGQKKLIEQLYRYLCVIEEGFVIAGDNGLKITTDIASGFAGVAIGLVSIMDNKLTILPQI
modifications: not checked
stoichiometry N [2]: 2 | stoichiometry N [3]: 2

B2: PneKC, wild type, N-terminal His7 tag, co-expressed with PneA from pQLinkN-PneKC-PneA (enzyme)
chain: B1 chain
modifications: not checked
stoichiometry N [4]: 2

Reference: PMC11330476
